Measured values as given in publication PMC12629460.

Key:
Assay in all cases: cryo-EM structure
[1] = biological target: PltBd2 in the endogenously expressed DiaT holotoxin purified from S. diarizonae (S. diarizonae)
[2] = biological target: PltBd1 recombinantly expressed in E. coli as part of a holotoxin (S. diarizonae)
[3] = biological target: PltBd2 recombinantly expressed in E. coli as part of the PltBd2 homopentameric holotoxin (S. diarizonae)

Substance “PltBd1 in the endogenously expressed DiaT holotoxin purified from S. diarizonae (natural protein)” has a stoichiometry N (PltBd1 per PltBd2 (3:2)) [1] of 1.5.
Work on “PltBd1 recombinantly expressed in E. coli as part of a holotoxin (natural protein)” yielded a stoichiometry N [2] of 5.
In the case of “PltBd2 recombinantly expressed in E. coli as part of the PltBd2 homopentameric holotoxin (natural protein)”, the stoichiometry N [3] is reported as 5.
